Measured values as given in PMC11073785, “YeeD is an essential partner for YeeE-mediated thiosulfate uptake in bacteria and regulates thiosulfate ion decomposition” (PLOS Biology, 2024).

B1: Spirochaeta thermophila YeeE [Spirochaeta thermophila] / Spirochaeta thermophila YeeD (WT), His6-tagged [Spirochaeta thermophila] (parent complex)
chain 1: MIWTGLLVGFLFGIVLQRGRICFNSAFRDVLLFKDNYLFKLAVFTLALEMILFVLLSQVGLMQMNPKPLNLVGNIIGGFVFGLGMVLAGGCASGVTYRVGEGLTTAWFAALFYGLGAYATKSGAFSWWLSWVGQFKSPLSVEESAYYVKGAGPTISSVLGLNPWIPALVIAALFILWAFGTKTTSRETKFNWKIASVCLALVAGLGFITSTLSGRKYGLGITGGWINLFQGFLTNSPLNWEGLEIVGIILGAGVAAAVAGEFKLRMPKNPVTYLQVGIGGLLMGIGAVTAGGCNIGHFLTGVPQLALSSWLASIFFILGNWTMAWILF
chain 2: MANYQVSKEIDVRGEVCPIPDVEAKRAVQSANDGEIILVRIDYPLSKERIPETVKKLGSEVLEIEEAAPGEWNIYIKVKK

Variants of: B1
Assay: BLI; Octet buffer (20 mM Tris-HCl (pH 8.0), 300 mM NaCl, 0.1% (w/v) DDM, 1 mM β-ME); response at 120 s; parent: 1.8; read off a plot
chain 2 C17A gave a response of about 0.14 nm.
With chain 2 D42A the response was about 0.04 nm.
